# Results reported in patent publication US20250122306A1 (SUTRO BIOPHARMA, published 2025).
# Residue numbers refer to the chain shown, from its start.
# T1: cynomolgus tissue factor (cynomolgus TF, Sino Bio #90885-C08H) (cynomolgus monkey, UniProt P13726 33-251 (human entry))
# T1 construct: bought recombinant antigen; also called cyno TF
# T1 chain: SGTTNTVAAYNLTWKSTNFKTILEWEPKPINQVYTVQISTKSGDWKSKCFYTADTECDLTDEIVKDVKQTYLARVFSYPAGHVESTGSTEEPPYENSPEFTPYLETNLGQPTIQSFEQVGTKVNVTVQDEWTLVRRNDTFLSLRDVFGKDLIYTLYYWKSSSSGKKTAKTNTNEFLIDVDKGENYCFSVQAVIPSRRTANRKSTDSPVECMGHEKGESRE
# T2: cynomolgus tissue factor on HEK293T-cynoTF cells (cynomolgus monkey, UniProt P13726 33-294 (human entry))
# T2 construct: stably transfected HEK293T cells
# T2 chain: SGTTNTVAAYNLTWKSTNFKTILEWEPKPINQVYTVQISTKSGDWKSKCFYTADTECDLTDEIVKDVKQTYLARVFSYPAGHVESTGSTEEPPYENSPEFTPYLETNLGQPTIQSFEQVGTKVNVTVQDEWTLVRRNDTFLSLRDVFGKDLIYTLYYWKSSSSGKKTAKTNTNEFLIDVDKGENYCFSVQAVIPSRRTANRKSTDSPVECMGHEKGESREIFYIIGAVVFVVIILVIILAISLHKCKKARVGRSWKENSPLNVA
# B1: mAb 49: aTF_2842-G04_HC2_Y180/F404TAG; aTF_2842-G04_LC2 (antibody, IgG1, V domains shown)
# VH: QVQVQESGPGLVKPPGTLSLTCAVSGFSLSYYGVSWVRQPPGKGLEWIGTIDSSGRTYYNPSLKSRVTISNDNAPNTVSLKLSSVTAADTAVYYCARDFYGWNSGALDIWGQGTLVTVSS
# VL: DLQLTQSPSTLSASVGDRVTITCRASQSVYSNKYLSWYQQKPGKAPKLLIYKASTLASGVPSRFSGSGSGTEFTLTISSLQPDDFATYYCAAAYSDDSDTAFGQGTKVEIKR
# modifications: non-natural amino acid (pAMF) at TAG sites Y180 and F404 (EU), * in the sequence
# notes: unconjugated full-length IgG1/kappa; also called 2842-G04 HC2/LC2
# B2: mAb 47: aTF_2842-B01_HC3_Y180/F404TAG; aTF_2842-B01_LC1 (antibody, IgG1, V domains shown)
# VH: EVQLVESGGGLVQPGGSLRLSCAASGFSISSYDMSWVRQAPGKGLEWIGIIGSNGRTYYPDSVKGRFTISRDNSKNTVTLQMNSLRAEDTAVYYCARGLYDGTGNIWGQGTLVTVSS
# VL: DLQMTQSPSSLSASVGDRVTITCRASQSVYGNNWLSWYQQKPGKAPKLLIYGASKLASGVPSRFSGSGSGTQFTLTISSLQPEDFATYYCQGTYYSGDWYFAFGQGTKVEIKR
# modifications: non-natural amino acid (pAMF) at TAG sites Y180 and F404 (EU), * in the sequence
# notes: unconjugated full-length IgG1/kappa; also called 2842-B01 HC3/LC1
# B3: mAb 48: aTF_2842-B01_HC1_Y180/F404TAG; aTF_2842-B01_LC3 (antibody, IgG1, V domains shown)
# VH: B2 VH with E1Q, L4V, Q13K, V37I, P60A, D72N, N73T, S74N, K75E, T79Y
# VL: B2 VL with L2I, R24Q, Q72D, Q105G
# modifications: non-natural amino acid (pAMF) at TAG sites Y180 and F404 (EU), * in the sequence
# notes: unconjugated full-length IgG1/kappa; also called 2842-B01 HC1/LC3
# B4: mAb 46: aTF_2900-H09_HC_Y180/F404TAG_SerOpt; Trastuzumab LC SerOpt (antibody, human IgG1, kappa, V domains shown)
# VH: EVQLVESGGGLVQPGGSLRLSCAASGFTISDYVIHWVRQAPGKGLEWVGYIDPSNGYTYYADSVKGRFTISADTSKNTAYLQMNSLRAEDTAVYYCARDDQSISSPLDYWGQGTLVTVSS
# VL: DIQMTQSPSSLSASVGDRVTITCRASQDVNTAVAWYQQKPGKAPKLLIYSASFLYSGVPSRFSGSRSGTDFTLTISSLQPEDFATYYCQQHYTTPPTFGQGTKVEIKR
# modifications: non-natural amino acid (pAMF) at TAG sites Y180 and F404 (EU), * in the sequence
# notes: unconjugated full-length IgG1/kappa
# B5: mAb 44: aTF_2900-F09_HC_Y180/F404TAG_SerOpt; Trastuzumab LC SerOpt (antibody, human IgG1, kappa, V domains shown)
# VH: B4 VH with S30H
# VL: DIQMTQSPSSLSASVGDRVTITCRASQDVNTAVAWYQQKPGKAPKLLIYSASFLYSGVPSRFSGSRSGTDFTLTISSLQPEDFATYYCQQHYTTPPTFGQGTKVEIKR
# modifications: non-natural amino acid (pAMF) at TAG sites Y180 and F404 (EU), * in the sequence
# notes: as for B4
# B6: mAb 45: aTF_2900-H06_HC_Y180/F404TAG_SerOpt; Trastuzumab LC SerOpt (antibody, human IgG1, kappa, V domains shown)
# VH: B4 VH with S30A, D31A, V33I, I103F, L107F
# VL: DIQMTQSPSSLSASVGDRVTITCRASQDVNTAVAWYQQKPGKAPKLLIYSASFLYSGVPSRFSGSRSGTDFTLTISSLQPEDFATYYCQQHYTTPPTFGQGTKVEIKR
# modifications: non-natural amino acid (pAMF) at TAG sites Y180 and F404 (EU), * in the sequence
# notes: as for B4
# B7: mAb 43: aTF_2900-F06_HC_Y180/F404TAG_SerOpt; Trastuzumab LC SerOpt (antibody, human IgG1, kappa, V domains shown)
# VH: B4 VH with D31I, V33T, F68L, D100P, L107F
# VL: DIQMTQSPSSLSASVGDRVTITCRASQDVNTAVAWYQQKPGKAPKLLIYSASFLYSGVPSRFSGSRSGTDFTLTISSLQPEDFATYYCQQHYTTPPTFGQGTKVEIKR
# modifications: non-natural amino acid (pAMF) at TAG sites Y180 and F404 (EU), * in the sequence
# notes: as for B4
# B8: mAb 42: aTF_2900-C11_HC_Y180/F404TAG_SerOpt; Trastuzumab LC SerOpt (antibody, human IgG1, kappa, V domains shown)
# VH: B4 VH with D31Q, V33W, S54Y, D100Y, Q101G, I103W, S104R, S105I, P106R
# VL: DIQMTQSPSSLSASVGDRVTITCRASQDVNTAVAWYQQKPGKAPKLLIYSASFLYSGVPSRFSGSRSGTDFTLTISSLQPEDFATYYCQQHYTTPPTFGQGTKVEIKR
# modifications: non-natural amino acid (pAMF) at TAG sites Y180 and F404 (EU), * in the sequence
# notes: as for B4
# B9: SRP2799-B03 (antibody, IgG1, V domains shown)
# VH: EVQLVESGGGLVQPGGSLRLSCAASGFNISDYWIHWVRQAPGKGLEWVGFIDPYNGYTNYADSVKGRFTISADTSKNTAYLQMNSLRAEDTAVYYCARGYGSWPDYLDYWGQGTLVTVSS
# VL: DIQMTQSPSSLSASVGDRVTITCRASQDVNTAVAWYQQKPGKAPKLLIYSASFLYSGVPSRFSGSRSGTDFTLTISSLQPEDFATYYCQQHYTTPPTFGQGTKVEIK
# notes: also called SRP2799-B03 (parent)
# B10: SRP2900-G05 (antibody, IgG1, V domains shown)
# VH: B4 VH with S17L, S30A, D31Y, I103L, L107F
# VL: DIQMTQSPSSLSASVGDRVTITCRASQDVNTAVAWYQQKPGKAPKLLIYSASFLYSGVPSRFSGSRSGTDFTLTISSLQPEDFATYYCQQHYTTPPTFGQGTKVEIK
# B11: SRP2900-H06 (antibody, IgG1, V domains shown)
# VH: B4 VH with S30A, D31A, V33I, I103F, L107F
# VL: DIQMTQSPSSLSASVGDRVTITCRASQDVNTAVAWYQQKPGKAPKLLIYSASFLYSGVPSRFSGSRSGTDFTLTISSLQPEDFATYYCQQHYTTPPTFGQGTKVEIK
# B12: SRP2900-H11 (antibody, IgG1, V domains shown)
# VH: B4 VH with D31S, V33I, L45P, D100P, S102T, I103L, S104T, L107F
# VL: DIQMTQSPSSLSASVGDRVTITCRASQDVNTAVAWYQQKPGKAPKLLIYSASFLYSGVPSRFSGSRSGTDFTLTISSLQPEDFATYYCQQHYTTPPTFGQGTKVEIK
# B13: SRP2900-H09 (antibody, IgG1, V domains shown)
# VH: B4 VH
# VL: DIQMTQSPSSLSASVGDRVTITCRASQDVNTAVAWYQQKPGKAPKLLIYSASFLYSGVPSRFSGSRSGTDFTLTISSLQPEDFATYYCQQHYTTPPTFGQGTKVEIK
# B14: SRP2900-H07 (antibody, IgG1, V domains shown)
# VH: B4 VH with T28N, S30A, D31Y, V33T, D100P, I103F, L107F
# VL: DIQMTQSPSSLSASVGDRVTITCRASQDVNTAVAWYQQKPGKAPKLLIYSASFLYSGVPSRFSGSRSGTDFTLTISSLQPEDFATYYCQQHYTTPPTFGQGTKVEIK
# B15: SRP2799-A05 (antibody, IgG1, V domains shown)
# VH: EVQLVESGGGLVQPGGSLRLSCAASGFNISSYWIHWVRQAPGKGLEWVGYIDPYSGSTYYADSVKGRFTISADTSKNTAYLQMNSLRAEDTAVYYCARSDYYYVDEYMDYWGQGTLVTVSS
# VL: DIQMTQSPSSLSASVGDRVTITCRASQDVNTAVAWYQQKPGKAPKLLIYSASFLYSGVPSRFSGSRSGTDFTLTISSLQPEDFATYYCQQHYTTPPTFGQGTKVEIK
# notes: also called SRP2799-A05 (parent)
# Target: T1, cynomolgus tissue factor (cynomolgus …)
# Assay: Biacore SPR kinetics, antibody captured on anti-Fc, 1:1 Langmuir fit
# Protocol: (§1) Anti-Fc polyclonal antibodies were immobilized onto a CM4 chip (Cytiva #BR100534) using amine coupling chemistry (Human Antibody Capture Kit, Cytiva #BR100839). The immobilization steps were carried out at a flow rate of 25 μL/min in 1×HBS-EP+buffer (Cytiva #BR100669). The sensor surfaces were activated for 7 min with a mixture of N-hydroxysuccinimide (NHS, 0.05 M) and 1-ethyl-3-(3-dimethylaminopropyl)-carbodiimide (EDC, 0.2 M). The anti-Fc polyclonal antibodies were injected over all 4 flow cells at a concentration of 25 μg/mL in 10 mM sodium acetate, pH 4.5, for 7 min. Ethanolamine (1 M, pH 8.5) was injected for 7 min to block any remaining activated groups.
# (§2) Off-rate and kinetic binding experiments were performed at 25° C. using 1×HBS-EP+buffer. Antibodies were injected over the anti-Fc surface at a concentration of 3 μg/mL for 12 seconds at a flow rate of 10 μL/min on flow cells 2, 3 and 4, followed by a buffer wash for 30 seconds at the same flow rate. Single point off-rate analysis was carried out using an antigen concentration of 100 nM. […] After capturing ligand (antibody) on the anti-Fc surface, the analyte (human TF, Lake Pharma; cynomolgus TF, Sino Bio #90885-C08H; mouse TF, R&D Systems #3178-PA) was bound for 180 seconds, followed by a 420 second dissociation phase at a flow rate of […]. Between each ligand capture and analyte binding cycle, regeneration was carried out using 2 injections of 10 mM glycine pH 2.0 for 30 seconds at 30 μL/min, followed by a 30 second buffer wash step.
# (§3) The data were fit with the Biacore T200 Evaluation software, using a 1:1 Langmuir binding model. KD (affinity, nM) was determined as a ratio of the kinetic rate constants calculated from the fits of the association and dissociation phases.
Binder,Kd [nM],koff [s⁻¹],kon [M⁻¹ s⁻¹]
B1,29.9,0.00241,80800
B2,20.1,0.00166,82700
B3,60.7,0.00735,121000
B4,41.6,0.00681,164000
B5,18.9,0.00309,164000
B6,0.255,0.000309,1.21e+06
B7,7.33,0.00231,316000
B8,24.2,0.00309,128000

# Target: T3, human tissue factor (human TF, Lake Pharma) (human, UniProt P13726 33-251, limits assumed)
# T3 construct: bought recombinant antigen; also called CD142
# Assay: as above
# Protocol: as §1, §2, §3
Binder,Kd [nM],koff [s⁻¹],kon [M⁻¹ s⁻¹]
B1,13.8,0.000865,62500
B2,7.81,0.000422,54000
B3,17.4,0.00124,71200
B4,6.24,0.00226,362000
B5,5.42,0.00196,362000
B6,7.78,0.00426,547000
B7,19.1,0.00594,311000
B8,3.59,0.000674,188000

# Target: T1, cynomolgus tissue factor (cynomolgus …)
# Assay: Biacore SPR, single-point off-rate (100 nM antigen), antibody captured on anti-Fc
# Protocol: as §1, §2
row,Binder,koff [s⁻¹]
1,B9,0.00169
2,B10,0.000667
3,B11,0.000648
4,B12,0.000946
5,B13,0.00584
6,B14,0.0013
7,B15,0.0337

# Target: T3, human tissue factor (human TF, Lake …)
# Assay: as above
# Protocol: as §1, §2
row,Binder,koff [s⁻¹]
1,B9,0.00415
2,B10,0.00115
3,B11,0.00347
4,B12,0.0025
5,B13,0.00169
6,B14,0.00205
7,B15,0.00304

# Target: T4, human tissue factor on cells (human, UniProt P13726 33-295)
# T4 construct: cell-surface TF, transfected (HEK293T-humanTF) or endogenous (tumour lines, keratinocytes); the cell line is named under assay; also called HEK293T-humanTF; TF on BxPC3, primary human keratinocytes, NCI-H292, HCC1954, NCI-H1975
# Assay: flow cytometry on BxPC3 cells (TF positive), one-site fit of MFI
# Text: (§4) HEK293T, BxPC3 cells (TF positive) and NCI-H1703 (TF negative) cells were obtained from ATCC (American Type Culture Collection) and maintained in DMEM: F12 (1:1), high glucose (Corning) supplemented with 10% heat-inactivated fetal bovine serum (ThermoScientific), 1× Penicillin/Streptomycin (Corning) and 2 mmol glutamax (Thermo Fisher Scientific). To generate cells that stably expressing human tissue factor (HEK293T-humanTF) or cynomolgus tissue factor (HEK293T-cynoTF), HEK293T cells were transfected with plasmid vectors that contain the corresponding protein sequence and stable clones were selected with puromycin.
# (§5) For a fluorescence-activated cell sorting (FACS) cell-binding assay, cells were collected by Accutase and counted by the Vi-CELL Cell Viability Analyzersharvested and, then re-suspended in FACS buffer (DPBS buffer supplemented with 1% bovine serum albumin). A total of 200,000 cells in 100 μL were incubated on ice with 100 μL of anti-TF antibodies in each well of a 96-well plate. Cells were washed twice with ice-cold FACS buffer and then incubated on ice for 60 mins with 5 μg/mL Alexa 647-labeled donkey anti-human Fc antibody (Jackson ImmunoResearch). Unstained cells and cells stained with secondary antibody alone were used as controls. Cells were washed twice with FACS buffer and analyzed using a BD FACS Canto system. Geometric mean fluorescence intensities (MFI) were fitted using non-linear regression analysis with one site specific binding equation on GraphPad Prism (GraphPad Software; La Jolla, CA).
Binder,Bmax (MFI),Kd [nM]
B9,45400,4.7
B15,52700,26.1

# Target: T2, cynomolgus tissue factor on …
# Assay: flow cytometry on HEK293T-cynoTF cells, one-site fit of MFI
# Text: as §4, §5
Binder,Bmax (MFI),Kd [nM]
B1,465000,5.1
B2,501000,3.2
B3,486000,3.4
B4,483000,38
B5,429000,29
B6,441000,7.5
B7,419000,21
B8,426000,16

# Target: T4, human tissue factor on cells
# Assay: flow cytometry on HEK293T-humanTF cells, one-site fit of MFI
# Text: as §4, §5
Binder,Bmax (MFI),Kd [nM]
B1,244000,1.4
B2,351000,3.3
B3,318000,2.3
B4,300000,0.93
B5,296000,0.9
B6,302000,1.3
B7,253000,1.7
B8,275000,0.8

# Target: tissue factor reagent of the Tissue Factor Activity Assay Kit (Abcam #ab108906) (UniProt P13726 33-295, limits assumed)
# Assay: cell-based or functional assay
row,Binder,"FX conversion (% inhibition), 1000 nM antibody [%]"
1,B9,2.41
2,B10,12.1
3,B11,4.04
4,B12,-3.63
5,B13,4.48
6,B14,13.5
7,B15,1.12
